Values joined by “and” are separate entries in the source; they are usually repeats but may differ in a detail not shown here. Equal values may be shown once.
What was measured:
[1] = target: Clostridium thermocellum LL346 (ethanol-tolerant) AdhE, mutations P704L and H734R (Acetivibrio thermocellus, UniProt A3DCI2, H734R/P704L)
[2] = system: purified AdhE proteins in C. thermocellum, with the exception of LL346; test: Product inhibition of purified AdhE; assay type: biochemical, Clostridium thermocellum; conditions: concentration not stated
Description: The E. coli crude extracts described above were incubated at 50° C. anaerobically for 20 min to denature E. coli proteins, and the denatured proteins were separated by centrifugation. In strains LL346 and LL1040, the AdhE proteins were heat labile, and lost activity after 50° C. incubation, so these cell extracts were applied directly to the purification column without heating. E. coli cells expressing the control plasmid pNT-CALML3 were subject to the same treatment as above, and its ADH and ALDH activities before and after heat treatment were measured (Table S3). […] For C. thermocellum and T. saccharolyticum AdhE, activity was measured at various stages during purification. […]
All the ALDH activity measurements mentioned in this study refer to the reaction in the acetaldehyde-producing direction. […] Decrease in absorbance at 340 nm caused by NAD(P)H oxidation was monitored by an Agilent 8453 UV-Vis spectrophotometer with Peltier temperature control. Protein concentration was determined using the Bradford method with bovine serum albumin (Thermo Scientific) as the standard. Specific activities are expressed as units per mg of protein. […] The software Visual Enzymics (SoftZymics) was used for non-linear regression to calculate the apparent Km, and kcat values in Table 10. kcat was calculated on the basis of a molecular weight of 97-kDa (26). […]

[3] = substrate: NC(=O)C1=CN([C@@H]2O[C@H](COP(=O)(O)OP(=O)(O)OC[C@H]3O[C@@H](n4cnc5c(N)ncnc54)[C@H](O)[C@@H]3O)[C@@H](O)[C@H]2O)C=CC1; test: purified protein, by the assay type; conditions: pH 7.0; 55.0 °C
[4] = substrate: CC(=O)SCCNC(=O)CCNC(=O)[C@H](O)C(C)(C)COP(=O)(O)OP(=O)(O)OC[C@H]1O[C@@H](n2cnc3c(N)ncnc32)[C@H](O)[C@@H]1OP(=O)(O)O; test: purified protein, by the assay type; conditions: pH 7.0; 55.0 °C
[5] = substrate: CC=O; test: purified protein, by the assay type; conditions: pH 7.0; 55.0 °C
[6] = substrate: NC(=O)C1=CN([C@@H]2O[C@H](COP(=O)(O)OP(=O)(O)OC[C@H]3O[C@@H](n4cnc5c(N)ncnc54)[C@H](OP(=O)(O)O)[C@@H]3O)[C@@H](O)[C@H]2O)C=CC1; test: purified protein, by the assay type; conditions: pH 7.0; 55.0 °C
[7] = substrate: NC(=O)C1=CN([C@@H]2O[C@H](COP(=O)(O)OP(=O)(O)OC[C@H]3O[C@@H](n4cnc5c(N)ncnc54)[C@H](O)[C@@H]3O)[C@@H](O)[C@H]2O)C=CC1; test: purified protein, by the assay type; conditions: pH 7.0; 55.0 °C; remark: listed apart in the source
[8] = substrate: NC(=O)C1=CN([C@@H]2O[C@H](COP(=O)(O)OP(=O)(O)OC[C@H]3O[C@@H](n4cnc5c(N)ncnc54)[C@H](O)[C@@H]3O)[C@@H](O)[C@H]2O)C=CC1; test: ALDH reaction (acetyl-CoA reduction) of purified AdhE, apparent kinetics; assay type: biochemical, Clostridium thermocellum; conditions: pH 7.0; 55.0 °C
Description: (§1) 500 μL of E. coli culture containing a plasmid with the adhE gene of interest was inoculated into 100 mL sterile LB broth Miller (Acros) with the appropriate antibiotic, and were grown aerobically to OD600 0.5 with shaking at 200 rpm at 37° C. (Eppendorf Innova 42 shaker). The E. coli strain harboring the pNT-CALML3 control plasmid (Invitrogen) was used as a negative control to measure native E. coli ADH or ALDH activity. The cultures were then transferred to sterile serum bottles, and 40 mM IPTG (Isopropyl β-D-1-thiogalactopyranoside) was used to induce protein expression. The serum bottles were then purged with nitrogen to generate an anaerobic protein expression environment, and the cells were cultured for 2 h at 37° C. before harvesting.
(§2) The E. coli crude extracts described above were incubated at 50° C. anaerobically for 20 min to denature E. coli proteins, and the denatured proteins were separated by centrifugation. In strains LL346 and LL1040, the AdhE proteins were heat labile, and lost activity after 50° C. incubation, so these cell extracts were applied directly to the purification column without heating. E. coli cells expressing the control plasmid pNT-CALML3 were subject to the same treatment as above, and its ADH and ALDH activities before and after heat treatment were measured (Table S3). The cell extracts containing His-tagged AdhE were then subjected to anaerobic affinity column purification (Ni-NTA spin columns, Qiagen). The purification was carried out according to the Qiagen protocol “Ni-NTA Agarose Purification of 6×His-tagged Proteins from E. coli under Native Conditions” with some modifications as described below. The column was first equilibrated with Equilibrium Buffer (50 mM NaH2PO4, 300 mM NaCl, 5 mM imidazole, 5 μM FeSO4, pH 7), then cell extracts were applied to the column and the column was washed twice with Wash Buffer (50 mM NaH2PO4, 300 mM NaCl, 50 mM imidazole, 20% ethanol, 5 μM FeSO4, pH 7). The His-tagged AdhE was eluted by addition of 200 μL Elution Buffer (50 mM NaH2PO4, 300 mM NaCl, 500 mM imidazole, 5 μM FeSO4, pH 7), this is “Eluent 1” in Table S3 and S4. Repeating this elution step sequentially generated more purified “Eluent 2” and “Eluent 3”. For C. thermocellum and T. saccharolyticum AdhE, activity was measured at various stages during purification. […] The degree of protein purity was estimated by gel densitometry using the image analysis software ImageJ, where the density of each visible gel band from Eluent 3 was plotted as peaks. The area of each peak was then integrated to generate percentages, which is an indicator of AdhE purity E. coli cell extracts with native AdhE expressed (i.e. without the His-tag) were used directly without purification.
(§3) All the ALDH activity measurements mentioned in this study refer to the reaction in the acetaldehyde-producing direction. All the ADH activity measurements mentioned in this study refer to the reaction in the ethanol-producing direction. For ADH (acetaldehyde reduction) reactions, the anaerobic reaction mixture contained 0.24 mM NADH or NADPH, 17.6 mM acetaldehyde, 1 mM DTT, 100 mM Tris-HCl, 5 μM FeSO4 and cell extract or purified protein solution (protein amount indicated separately for each assay). The final volume was 850 μL, the assay temperature was 55° C. and the assay was started by the addition of acetaldehyde. For ALDH (acetyl-CoA reduction) reactions, the acetaldehyde in the above anaerobic reaction mixture was substituted with 0.35 mM acetyl-CoA. Decrease in absorbance at 340 nm caused by NAD(P)H oxidation was monitored by an Agilent 8453 UV-Vis spectrophotometer with Peltier temperature control. Protein concentration was determined using the Bradford method with bovine serum albumin (Thermo Scientific) as the standard. Specific activities are expressed as units per mg of protein. One unit of activity=formation of 1 μmol of product per min Specific activities in Table 8 and Table 9 are reported for at least two biological replicates. […]

[9] = substrate: CC(=O)SCCNC(=O)CCNC(=O)[C@H](O)C(C)(C)COP(=O)(O)OP(=O)(O)OC[C@H]1O[C@@H](n2cnc3c(N)ncnc32)[C@H](O)[C@@H]1OP(=O)(O)O; test: as above; assay type: biochemical, Clostridium thermocellum; conditions: pH 7.0; 55.0 °C
Description: as §1, §2, §3

[10] = substrate: CC=O; test: ADH reaction (acetaldehyde reduction) of purified AdhE, apparent kinetics; assay type: biochemical, Clostridium thermocellum; conditions: pH 7.0; 55.0 °C
Description: as §1, §2, §3

[11] = substrate: NC(=O)C1=CN([C@@H]2O[C@H](COP(=O)(O)OP(=O)(O)OC[C@H]3O[C@@H](n4cnc5c(N)ncnc54)[C@H](O)[C@@H]3O)[C@@H](O)[C@H]2O)C=CC1; test: as above; assay type: biochemical, Clostridium thermocellum; conditions: pH 7.0; 55.0 °C
Description: as §1, §2, §3

[12] = in the presence of 2.35 mM NAD^+

CCO [ethanol]
increase in ADH activity ([1]; purified adhe): 2 fold

NC(=O)c1ccc[n+]([C@@H]2O[C@H](COP(=O)([O-])OP(=O)(O)OC[C@H]3O[C@@H](n4cnc5c(N)ncnc54)[C@H](O)[C@@H]3O)[C@@H](O)[C@H]2O)c1 [NAD^+]
ADH activity retained [1, 12]: 98% | ALDH activity retained [1, 12]: 92% | inhibition by NAD^+ ([1]; purified AdhE, concentration not stated): less than 10%

NAD(P)^+
activity inhibited by NAD(P)^+ [2]: at least 70%

B1: (Acetivibrio thermocellus; D494G) (protein)
chain: MTKIANKYEVIDNVEKLEKALKRLREAQSVYATYTQEQVDKIFFEAAMAANKMRIPLAKMAVEETGMGVVEDKVIKNHYASEYIYNAYKNTKTCGVIEEDPAFGIKKIAEPLGVIAAVIPTTNPTSTAIFKTLIALKTRNAIIISPHPRAKNSTIEAAKIVLEAAVKAGAPEGIIGWIDVPSLELTNLVMREADVILATGGPGLVKAAYSSGKPAIGVGAGNTPAIIDDSADIVLAVNSIIHSKTFDNGMICASEQSVIVLDGVYKEVKKEFEKRGCYFLNEDETEKVRKTIIINGALNAKIVGQKAHTIANLAGFEVPETTKILIGEVTSVDISEEFAHEKLCPVLAMYRAKDFDDALDKAERLVADGGFGHTSSLYIDTVTQKEKLQKFSERMKTCRILVNTPSSQGGIGDLYNFKLAPSLTLGCGSWGGNSVSDNVGVKHLLNIKTVAERRENMLWFRTPEKIYIKRGCLPVALDELKNVMGKKKAFIVTGNFLYNNGYTKPITDKLDEMGIVHKTFFDVSPDPSLASAKAGAAEMLAFQPDTIIAVGGGSAMDAAKIMWVMYEHPEVDFMDMAMRFMDIRKRVYTFPKMGQKAYFIAIPTSAGTGSEVTPFAVITDEKTGIKYPLADYELLPDMAIVDADMMMNAPKGLTAASGIDALTHALEAYVSMLATDYTDSLALRAIKMIFEYLPRAYENGASDLVAREKMANAATIAGMAFANAFLGVCHSMARKLGAFYHLPHGVANALMINEVIRFNSSEAPTKMGTFPQYDHPRTLERYAEIADYIGLKGKNNEEKVENLIKAIDELKEKVGIRKTIKDYDIDEKEFLDRLDEMVEQAFDDQCTGTNPRYPLMNEIRQMYLNAYYGGAKK
Km [3]: 20 ± 2 µM | kcat [3]: 64 ± 2 s⁻¹ | kcat/Km [3]: 3.4e+06 M⁻¹ s⁻¹ | Km [4]: 4 ± 0.5 µM | kcat [4]: 202 ± 4 s⁻¹ | kcat/Km [4]: 5.8e+07 M⁻¹ s⁻¹ | Km [5]: 2100 ± 200 µM and 1800 ± 200 µM | kcat [5]: 318 s⁻¹ and 246 s⁻¹ | kcat/Km [5]: 150000 M⁻¹ s⁻¹ and 140000 M⁻¹ s⁻¹ | Km [6]: 80 ± 20 µM | kcat [6]: 295 ± 18 s⁻¹ | kcat/Km [6]: 3.8e+06 M⁻¹ s⁻¹ | Km [7]: 400 ± 50 µM | kcat [7]: 319 ± 21 s⁻¹ | kcat/Km [7]: 890000 M⁻¹ s⁻¹

B2: (Acetivibrio thermocellus) (protein)
chain: MTKIANKYEVIDNVEKLEKALKRLREAQSVYATYTQEQVDKIFFEAAMAANKMRIPLAKMAVEETGMGVVEDKVIKNHYASEYIYNAYKNTKTCGVIEEDPAFGIKKIAEPLGVIAAVIPTTNPTSTAIFKTLIALKTRNAIIISPHPRAKNSTIEAAKIVLEAAVKAGAPEGIIGWIDVPSLELTNLVMREADVILATGGPGLVKAAYSSGKPAIGVGAGNTPAIIDDSADIVLAVNSIIHSKTFDNGMICASEQSVIVLDGVYKEVKKEFEKRGCYFLNEDETEKVRKTIIINGALNAKIVGQKAHTIANLAGFEVPETTKILIGEVTSVDISEEFAHEKLCPVLAMYRAKDFDDALDKAERLVADGGFGHTSSLYIDTVTQKEKLQKFSERMKTCRILVNTPSSQGGIGDLYNFKLAPSLTLGCGSWGGNSVSDNVGVKHLLNIKTVAERRENMLWFRTPEKIYIKRGCLPVALDELKNVMGKKKAFIVTDNFLYNNGYTKPITDKLDEMGIVHKTFFDVSPDPSLASAKAGAAEMLAFQPDTIIAVGGGSAMDAAKIMWVMYEHPEVDFMDMAMRFMDIRKRVYTFPKMGQKAYFIAIPTSAGTGSEVTPFAVITDEKTGIKYPLADYELLPDMAIVDADMMMNAPKGLTAASGIDALTHALEAYVSMLATDYTDSLALRAIKMIFEYLPRAYENGASDLVAREKMANAATIAGMAFANAFLGVCHSMARKLGAFYHLPHGVANALMINEVIRFNSSEAPTKMGTFPQYDHPRTLERYAEIADYIGLKGKNNEEKVENLIKAIDELKEKVGIRKTIKDYDIDEKEFLDRLDEMVEQAFDDQCTGTNPRYPLMNEIRQMYLNAYYGGAKK
Km [8]: 60 ± 4 µM | kcat [8]: 152 ± 4 s⁻¹ | kcat/Km [8]: 2.8e+06 M⁻¹ s⁻¹ | Km [9]: 8 ± 2 µM | kcat [9]: 297 ± 11 s⁻¹ | kcat/Km [9]: 3.5e+07 M⁻¹ s⁻¹ | Km [10]: 1300 ± 200 µM | kcat [10]: 238 ± 8 s⁻¹ | kcat/Km [10]: 180000 M⁻¹ s⁻¹ | Km [11]: 100 ± 20 µM | kcat [11]: 302 ± 13 s⁻¹ | kcat/Km [11]: 2.3e+06 M⁻¹ s⁻¹
